# Laboratory results published in US20260234222A1.
# B1: Parental mAb 2 (antibody, V domains shown)
# VH: QMQLMQSGAEVKKPGASVTVSCKASGDTFSDYRIHWVRQAPGQGLEWMGRMNPKSGDTNFAQKFQGRVTMTRDMSINTAYMTLSGLTFDDTALYYCASLLIVGGFDPLDDFEVWGQGTMVTISS
# VL: QSALTQPPSASGSPGQSVTISCSGTSSDVGGYNFVSWYQHHPGKAPKILIYEVTKRPSGVPDRFSGSKSGNTASLTVSGLQAEDEADYYCSSYGGTNNLLFGGGTKLTVL
# Biological target: SARS-CoV-2 BQ.1 Spike antigen (SARS-CoV-2 Omicron BQ.1)
# Assay: cell-based or functional assay
binder,measurement,value
B1,Pseudovirion neutralization IC50,10.1 µg/mL
